This note sets out measurements from paper doi:10.1101/2023.12.18.572142 (bioRxiv, 2023).

Like-named read-outs stand apart in the source and are kept apart here.

Common to all, as to experiment: SPR
In general terms: In SPR one partner is held on a chip, and binding of the other changes the refractive index at the surface.

One test has as its target cat Fcμ–J complex (cat).
A further test deals with T1, mouse Fcμ–J complex (mouse, UniProt P01872 104-454; P01592 22-159).
T1 sequence (looked up) 1: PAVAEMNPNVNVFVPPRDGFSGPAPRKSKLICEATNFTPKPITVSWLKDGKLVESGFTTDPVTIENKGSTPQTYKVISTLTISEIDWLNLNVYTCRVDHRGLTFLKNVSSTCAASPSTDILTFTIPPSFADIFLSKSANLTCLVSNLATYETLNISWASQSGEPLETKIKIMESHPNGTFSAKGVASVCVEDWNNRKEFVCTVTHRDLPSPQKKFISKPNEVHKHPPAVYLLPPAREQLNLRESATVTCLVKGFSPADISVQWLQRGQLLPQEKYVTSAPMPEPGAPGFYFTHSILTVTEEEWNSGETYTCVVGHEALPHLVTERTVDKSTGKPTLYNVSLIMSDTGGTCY
T1 sequence (looked up) 2: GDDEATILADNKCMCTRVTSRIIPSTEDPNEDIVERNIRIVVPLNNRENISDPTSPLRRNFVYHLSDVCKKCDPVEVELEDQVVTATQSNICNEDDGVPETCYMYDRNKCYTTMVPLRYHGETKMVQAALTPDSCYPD

Test [1] concerns the target T2, human Fcμ–J complex (pentameric IgM core: IgM-Fc pentamer and J chain) (human, UniProt P01871-1 106-453; P01591 23-159).
Test [2] has as its target T2, human Fcμ–J complex (pentameric IgM …). The source holds these as a separate data set.
The target is the same in test [3]. The source holds these as a separate data set.

In the test with cat Fcμ–J complex (cat), “cat CD5L (3-SRCR isoform) (from UniProt A0A1E1GEY0 20-355) (natural protein)” showed a Kd of 11 nM.

B1: mouse CD5L (natural protein, UniProt Q9QWK4 22-352, looked up)
chain: ESPTKVQLVGGAHRCEGRVEVEHNGQWGTVCDDGWDRRDVAVVCRELNCGAVIQTPRGASYQPPASEQRVLIQGVDCNGTEDTLAQCELNYDVFDCSHEEDAGAQCENPDSDLLFIPEDVRLVDGPGHCQGRVEVLHQSQWSTVCKAGWNLQVSKVVCRQLGCGRALLTYGSCNKNTQGKGPIWMGKMSCSGQEANLRSCLLSRLENNCTHGEDTWMECEDPFELKLVGGDTPCSGRLEVLHKGSWGSVCDDNWGEKEDQVVCKQLGCGKSLHPSPKTRKIYGPGAGRIWLDDVNCSGKEQSLEFCRHRLWGYHDCTHKEDVEVICTDFDV
In turn, B1 returned a dissociation constant (Kd) with mouse Fcμ–J complex of 5 nM.

B2: D1 domain of FcμR (domain or fragment, human)
chain: RILPEVKVEGELGGSVTIKCPLPEMHVRIYLCREMAGSGTCGTVVSTTNFIKAEYKGRVTLKQYPRKNLFLVEVTQLTESDSGVYACGAGMNTDRGKTQKVTLNVHS
Regarding B2, the results for the Kd in test [1] and in test [2] were 0.3 nM and 7.2 nM, respectively.

B3: human CD5L (CD5 antigen-like) (natural protein, UniProt O43866 20-347, looked up)
chain: SPSGVRLVGGLHRCEGRVEVEQKGQWGTVCDDGWDIKDVAVLCRELGCGAASGTPSGILYEPPAEKEQKVLIQSVSCTGTEDTLAQCEQEEVYDCSHDEDAGASCENPESSFSPVPEGVRLADGPGHCKGRVEVKHQNQWYTVCQTGWSLRAAKVVCRQLGCGRAVLTQKRCNKHAYGRKPIWLSQMSCSGREATLQDCPSGPWGKNTCNHDEDTWVECEDPFDLRLVGGDNLCSGRLEVLHKGVWGSVCDDNWGEKEDQVVCKQLGCGKSLSPSFRDRKCYGPGVGRIWLDNVRCSGEEQSLEQCQHRFWGFHDCTHQEDVAVICSG
B3 came in with a Kd in test [3] of 30 nM.

As usually defined, the Kd is the concentration at which binding is half-saturated. A lower Kd goes with a tighter complex.
